Publication PMC533864, “Selective inhibition of c-Myb DNA-binding by RNA polymers”

Legend:
c-Myb NR1R2R3 = c-Myb NR1R2R3 (Homo sapiens, UniProt P10242 1-192); assay: EMSA; 20 mM Tris-HCl pH 8.0, 0.1 mM EDTA, 10% glycerol, 0.1 mM DTT, 0.005% Triton X-100, 50 mM NaCl, RNAguard 6-20 U, 20 uL, 25 C, 15 min; settings: protein: recombinant; label: 32P
c-Myb R2R3 = c-Myb R2R3 (Homo sapiens, UniProt P10242 89-192); assay: as above; settings: protein: recombinant; label: 32P
Chain of c-Myb R2R3 (P10242 89-192): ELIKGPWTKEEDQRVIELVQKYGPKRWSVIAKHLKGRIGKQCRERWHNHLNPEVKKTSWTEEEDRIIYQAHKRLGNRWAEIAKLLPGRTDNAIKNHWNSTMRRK

Chain of c-Myb NR1R2R3 (P10242 1-192): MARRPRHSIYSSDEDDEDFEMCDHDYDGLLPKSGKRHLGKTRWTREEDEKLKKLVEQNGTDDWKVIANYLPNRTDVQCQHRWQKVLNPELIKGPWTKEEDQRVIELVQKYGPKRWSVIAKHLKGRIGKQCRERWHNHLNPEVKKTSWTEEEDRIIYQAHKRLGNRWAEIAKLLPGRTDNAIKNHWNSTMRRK

B1: MRE probe (mim-1 promoter) (dsDNA)
DNA 1: GCATTATAACGGTTTTTTAGCGC
DNA 2: GCGCTAAAAAACCGTTATAATGC
B1: binds (c-Myb NR1R2R3); binds (c-Myb R2R3).
